One block for each binder: values may come before it.
How the values were obtained:
Assay in all cases: holdup assay
Design in all cases: key: below the threshold = too weak to quantify, mostly under pKd 3.1 to 4
RAPGEF6, Q8TEU7 = target: T1, RAPGEF6, Q8TEU7
T1 sequence (Q8TEU7 525-625, limits assumed, looked up): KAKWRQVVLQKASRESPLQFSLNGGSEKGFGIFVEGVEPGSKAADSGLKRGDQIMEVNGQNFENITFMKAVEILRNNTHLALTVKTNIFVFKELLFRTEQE

APBA3_1, O96018 = target: T2, APBA3_1, O96018
T2 sequence (O96018 389-490, limits assumed, looked up): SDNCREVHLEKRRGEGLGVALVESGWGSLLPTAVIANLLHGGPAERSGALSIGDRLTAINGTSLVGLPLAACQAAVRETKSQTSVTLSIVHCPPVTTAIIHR

MAGI2_6, Q86UL8 = target: MAGI2_6, Q86UL8
Chain of MAGI2_6, Q86UL8 (Q86UL8 1141-1229): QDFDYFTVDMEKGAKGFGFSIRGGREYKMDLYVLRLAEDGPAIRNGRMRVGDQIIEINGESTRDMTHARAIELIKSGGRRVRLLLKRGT

ARHGEF11, O15085 = target: T3, ARHGEF11, O15085
T3 sequence (O15085 42-136, limits assumed, looked up): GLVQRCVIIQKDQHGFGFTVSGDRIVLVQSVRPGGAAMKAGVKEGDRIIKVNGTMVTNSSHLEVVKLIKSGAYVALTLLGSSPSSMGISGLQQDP

LAP2, Q96RT1 = target: LAP2, Q96RT1
Chain of LAP2, Q96RT1 (Q96RT1 other isoform, or with tags, fused parts or gaps): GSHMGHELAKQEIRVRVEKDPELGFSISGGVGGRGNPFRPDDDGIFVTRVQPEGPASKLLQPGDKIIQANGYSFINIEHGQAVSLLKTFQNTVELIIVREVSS

PARD3_3, Q8TEW0 = target: PARD3_3, Q8TEW0
Chain of PARD3_3, Q8TEW0 (Q8TEW0 582-685): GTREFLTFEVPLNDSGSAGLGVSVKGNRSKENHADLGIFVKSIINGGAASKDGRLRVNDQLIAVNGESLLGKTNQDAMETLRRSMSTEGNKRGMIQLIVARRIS

DLG5_1, Q8TDM6 = target: DLG5_1, Q8TDM6
Chain of DLG5_1, Q8TDM6 (Q8TDM6 617-713): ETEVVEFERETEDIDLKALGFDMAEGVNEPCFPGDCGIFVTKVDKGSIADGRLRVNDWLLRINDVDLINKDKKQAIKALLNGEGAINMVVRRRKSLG

AHNAK1, Q09666 = target: AHNAK1, Q09666
Chain of AHNAK1, Q09666 (Q09666 4-100): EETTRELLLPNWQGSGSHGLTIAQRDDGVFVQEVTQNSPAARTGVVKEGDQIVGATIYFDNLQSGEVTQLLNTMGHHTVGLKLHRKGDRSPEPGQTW

SNTA1, Q13424 = target: T4, SNTA1, Q13424
T4 sequence (Q13424 82-180, limits assumed, looked up): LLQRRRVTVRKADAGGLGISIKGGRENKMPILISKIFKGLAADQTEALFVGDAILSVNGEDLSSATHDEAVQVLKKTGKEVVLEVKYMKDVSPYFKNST

SNX27, Q96L92 = target: SNX27, Q96L92
MPP7, Q5T2T1 = target: T5, MPP7, Q5T2T1
T5 sequence (Q5T2T1 134-230, limits assumed, looked up): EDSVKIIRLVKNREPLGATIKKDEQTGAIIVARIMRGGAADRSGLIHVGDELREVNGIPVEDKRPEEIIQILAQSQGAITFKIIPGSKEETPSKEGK

DLG2_3, Q15700 = target: DLG2_3, Q15700
DVL3, Q92997 = target: T6, DVL3, Q92997
T6 sequence (Q92997 244-331, limits assumed, looked up): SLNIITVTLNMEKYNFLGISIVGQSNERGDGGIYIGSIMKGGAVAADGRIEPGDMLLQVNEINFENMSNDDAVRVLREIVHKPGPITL

SNTB1, Q13884 = target: T7, SNTB1, Q13884
T7 sequence (Q13884 107-205, limits assumed, looked up): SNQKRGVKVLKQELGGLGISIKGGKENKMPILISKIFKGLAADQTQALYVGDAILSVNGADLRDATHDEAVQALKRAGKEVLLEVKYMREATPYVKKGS

LRRC7, Q96NW7 = target: T8, LRRC7, Q96NW7
T8 sequence (Q96NW7 1440-1537, limits assumed, looked up): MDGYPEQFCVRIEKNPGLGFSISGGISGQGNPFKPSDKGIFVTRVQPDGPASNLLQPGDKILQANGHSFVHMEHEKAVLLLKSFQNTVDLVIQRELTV

GRIP2_6, Q9C0E4 = target: GRIP2_6, Q9C0E4
Chain of GRIP2_6, Q9C0E4 (Q9C0E4 648-740): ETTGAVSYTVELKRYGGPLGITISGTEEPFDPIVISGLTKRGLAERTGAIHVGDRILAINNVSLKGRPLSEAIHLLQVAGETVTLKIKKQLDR

PDZD2_2, O15018 = target: T9, PDZD2_2, O15018
T9 sequence (O15018 329-429, limits assumed, looked up): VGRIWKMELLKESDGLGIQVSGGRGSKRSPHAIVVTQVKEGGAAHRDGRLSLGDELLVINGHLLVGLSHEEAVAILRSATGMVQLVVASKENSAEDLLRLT

APBA2_1, Q99767 = target: T10, APBA2_1, Q99767
T10 sequence (Q99767 563-664, limits assumed, looked up): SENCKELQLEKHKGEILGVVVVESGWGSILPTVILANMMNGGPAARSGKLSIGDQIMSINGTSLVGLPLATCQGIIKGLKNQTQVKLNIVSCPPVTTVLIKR

FRMPD2_1, Q68DX3 = target: FRMPD2_1, Q68DX3
Chain of FRMPD2_1, Q68DX3 (Q68DX3 770-861): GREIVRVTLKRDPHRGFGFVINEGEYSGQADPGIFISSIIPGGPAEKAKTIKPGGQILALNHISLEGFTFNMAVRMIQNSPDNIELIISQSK

MPP6, Q9NZW5 = target: T11, MPP6, Q9NZW5
T11 sequence (Q9NZW5 125-219, limits assumed, looked up): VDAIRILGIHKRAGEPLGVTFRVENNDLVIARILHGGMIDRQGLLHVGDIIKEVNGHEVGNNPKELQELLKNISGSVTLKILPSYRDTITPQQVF

HTRA2, O43464 = target: HTRA2, O43464
Chain of HTRA2, O43464 (O43464 355-458): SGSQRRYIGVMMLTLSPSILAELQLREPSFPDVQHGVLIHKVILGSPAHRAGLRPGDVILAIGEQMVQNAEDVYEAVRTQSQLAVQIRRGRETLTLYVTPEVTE

DLG3_1, Q92796 = target: T12, DLG3_1, Q92796
T12 sequence (Q92796 125-227, limits assumed, looked up): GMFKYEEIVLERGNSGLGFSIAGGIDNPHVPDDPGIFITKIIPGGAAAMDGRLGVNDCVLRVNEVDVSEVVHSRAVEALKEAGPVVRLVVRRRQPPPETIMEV

PTPN13_1, Q12923 = target: T13, PTPN13_1, Q12923
T13 sequence (Q12923 1088-1188, limits assumed, looked up): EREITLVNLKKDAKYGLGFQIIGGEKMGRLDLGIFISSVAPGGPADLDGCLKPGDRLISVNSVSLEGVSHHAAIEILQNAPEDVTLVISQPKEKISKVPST

IL16_4, Q14005 = target: IL16_4, Q14005
Chain of IL16_4, Q14005 (Q14005 1229-1329): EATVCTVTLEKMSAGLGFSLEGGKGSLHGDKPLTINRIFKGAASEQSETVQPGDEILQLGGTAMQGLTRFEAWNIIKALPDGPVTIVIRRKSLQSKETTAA

FRMPD2_3, Q68DX3 = target: FRMPD2_3, Q68DX3
Chain of FRMPD2_3, Q68DX3 (Q68DX3 1073-1166): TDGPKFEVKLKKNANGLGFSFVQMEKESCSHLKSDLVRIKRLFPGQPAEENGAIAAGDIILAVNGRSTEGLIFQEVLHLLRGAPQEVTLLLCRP

[1] = plain residues with an end cap or a label only (N-terminal biotin on a linker: ado-ado)
[2] = plain residues with an end cap or a label only (N-terminal biotin on a linker: ahx)
[3] = plain residues with an end cap or a label only (N-terminal biotin on a linker: ttds)
[4] = plain residues with an end cap or a label only (N-terminal biotin on a linker: gsgsgs; C-terminal amide)

pKd (RAPGEF6, Q8TEU7; [1]): 3.56
pKd (APBA3_1, O96018; [1]): below the threshold
pKd (MAGI2_6, Q86UL8; [1]): 4.27
pKd (ARHGEF11, O15085; [1]): 4.64
pKd (LAP2, Q96RT1; [1]): below the threshold
pKd (PARD3_3, Q8TEW0; [1]): 3.61
pKd (DLG5_1, Q8TDM6; [1]): below the threshold
pKd (AHNAK1, Q09666; [1]): below the threshold
pKd (SNTA1, Q13424; [1]): 4.68
pKd (SNX27, Q96L92; [1]): 4.74
pKd (MPP7, Q5T2T1; [1]): 3.79
pKd (DLG2_3, Q15700; [1]): 3.78
pKd (DVL3, Q92997; [1]): below the threshold
pKd (SNTB1, Q13884; [1]): 4.92
pKd (LRRC7, Q96NW7; [1]): 3.61
pKd (GRIP2_6, Q9C0E4; [1]): below the threshold
pKd (PDZD2_2, O15018; [1]): 5.04
pKd (APBA2_1, Q99767; [1]): below the threshold
pKd (FRMPD2_1, Q68DX3; [1]): below the threshold
pKd (MPP6, Q9NZW5; [1]): below the threshold
pKd (HTRA2, O43464; [1]): below the threshold
pKd (DLG3_1, Q92796; [1]): below the threshold
pKd (PTPN13_1, Q12923; [1]): below the threshold
pKd (IL16_4, Q14005; [1]): below the threshold
pKd (FRMPD2_3, Q68DX3; [1]): below the threshold
Binder: EEPEERHTEL [CES2, O00748]

pKd (RAPGEF6, Q8TEU7; [2]): below the threshold
pKd (APBA3_1, O96018; [2]): below the threshold
pKd (MAGI2_6, Q86UL8; [2]): 4.07
pKd (ARHGEF11, O15085; [2]): 4.04
pKd (LAP2, Q96RT1; [2]): 4.09
pKd (PARD3_3, Q8TEW0; [2]): 4.47
pKd (DLG5_1, Q8TDM6; [2]): below the threshold
pKd (AHNAK1, Q09666; [2]): 3.64
pKd (SNTA1, Q13424; [2]): 5.28
pKd (SNX27, Q96L92; [2]): 5.38
pKd (MPP7, Q5T2T1; [2]): 3.63
pKd (DLG2_3, Q15700; [2]): 4.53
pKd (DVL3, Q92997; [2]): 3.69
pKd (SNTB1, Q13884; [2]): 4.95
pKd (LRRC7, Q96NW7; [2]): 3.76
pKd (GRIP2_6, Q9C0E4; [2]): below the threshold
pKd (PDZD2_2, O15018; [2]): 4.69
pKd (APBA2_1, Q99767; [2]): below the threshold
pKd (FRMPD2_1, Q68DX3; [2]): below the threshold
pKd (MPP6, Q9NZW5; [2]): below the threshold
pKd (HTRA2, O43464; [2]): 3.68
pKd (DLG3_1, Q92796; [2]): 4.34
pKd (PTPN13_1, Q12923; [2]): below the threshold
pKd (IL16_4, Q14005; [2]): below the threshold
pKd (FRMPD2_3, Q68DX3; [2]): 3.97
Binder: QGRWDHETIV [TMEM215, Q68D42]

pKd (RAPGEF6, Q8TEU7; [3]): below the threshold
pKd (APBA3_1, O96018; [3]): below the threshold
pKd (MAGI2_6, Q86UL8; [3]): below the threshold
pKd (ARHGEF11, O15085; [3]): below the threshold
pKd (LAP2, Q96RT1; [3]): below the threshold
pKd (PARD3_3, Q8TEW0; [3]): below the threshold
pKd (DLG5_1, Q8TDM6; [3]): below the threshold
pKd (AHNAK1, Q09666; [3]): below the threshold
pKd (SNTA1, Q13424; [3]): below the threshold
pKd (SNX27, Q96L92; [3]): 5.27
pKd (MPP7, Q5T2T1; [3]): below the threshold
pKd (DLG2_3, Q15700; [3]): below the threshold
pKd (DVL3, Q92997; [3]): below the threshold
pKd (SNTB1, Q13884; [3]): below the threshold
pKd (LRRC7, Q96NW7; [3]): below the threshold
pKd (GRIP2_6, Q9C0E4; [3]): below the threshold
pKd (PDZD2_2, O15018; [3]): 4.75
pKd (APBA2_1, Q99767; [3]): below the threshold
pKd (FRMPD2_1, Q68DX3; [3]): below the threshold
pKd (MPP6, Q9NZW5; [3]): below the threshold
pKd (HTRA2, O43464; [3]): below the threshold
pKd (DLG3_1, Q92796; [3]): below the threshold
pKd (PTPN13_1, Q12923; [3]): below the threshold
pKd (IL16_4, Q14005; [3]): below the threshold
pKd (FRMPD2_3, Q68DX3; [3]): below the threshold
Binder: GGPKEEESPV [SLC16A1, P53985]

pKd (RAPGEF6, Q8TEU7; [4]): below the threshold
pKd (APBA3_1, O96018; [4]): below the threshold
pKd (MAGI2_6, Q86UL8; [4]): below the threshold
pKd (ARHGEF11, O15085; [4]): below the threshold
pKd (LAP2, Q96RT1; [4]): below the threshold
pKd (PARD3_3, Q8TEW0; [4]): below the threshold
pKd (DLG5_1, Q8TDM6; [4]): below the threshold
pKd (AHNAK1, Q09666; [4]): below the threshold
pKd (SNTA1, Q13424; [4]): below the threshold
pKd (SNX27, Q96L92; [4]): below the threshold
pKd (MPP7, Q5T2T1; [4]): below the threshold
pKd (DLG2_3, Q15700; [4]): 3.69
pKd (DVL3, Q92997; [4]): below the threshold
pKd (SNTB1, Q13884; [4]): below the threshold
pKd (LRRC7, Q96NW7; [4]): below the threshold
pKd (GRIP2_6, Q9C0E4; [4]): below the threshold
pKd (PDZD2_2, O15018; [4]): below the threshold
pKd (APBA2_1, Q99767; [4]): below the threshold
pKd (FRMPD2_1, Q68DX3; [4]): below the threshold
pKd (MPP6, Q9NZW5; [4]): 3.69
pKd (HTRA2, O43464; [4]): below the threshold
pKd (DLG3_1, Q92796; [4]): below the threshold
pKd (PTPN13_1, Q12923; [4]): below the threshold
pKd (IL16_4, Q14005; [4]): below the threshold
pKd (FRMPD2_3, Q68DX3; [4]): below the threshold
Binder: ELIQDTSTSFSTTREW [ARAP3_int, Q8WWN8]

Reference: publication PMC9482650, “Quantitative fragmentomics allow affinity mapping of interactomes” (Nature Communications, 2022)
